According to patent publication CN116963747A (UNIV TEXAS, dated 2023):

B1: TRAF2 (other, human, UniProt Q12933 2-501, looked up)
chain: AAASVTPPGSLELLQPGFSKTLLGTKLEAKYLCSACRNVLRRPFQAQCGHRYCSFCLASILSSGPQNCAACVHEGIYEEGISILESSSAFPDNAARREVESLPAVCPSDGCTWKGTLKEYESCHEGRCPLMLTECPACKGLVRLGEKERHLEHECPERSLSCRHCRAPCCGADVKAHHEVCPKFPLTCDGCGKKKIPREKFQDHVKTCGKCRVPCRFHAIGCLETVEGEKQQEHEVQWLREHLAMLLSSVLEAKPLLGDQSHAGSELLQRCESLEKKTATFENIVCVLNREVERVAMTAEACSRQHRLDQDKIEALSSKVQQLERSIGLKDLAMADLEQKVLEMEASTYDGVFIWKISDFARKRQEAVAGRIPAIFSPAFYTSRYGYKMCLRIYLNGDGTGRGTHLSLFFVVMKGPNDALLRWPFNQKVTLMLLDQNNREHVIDAFRPDVTSSSFQRPVNDMNIASGCPLFCPVSKMEAKNSYVRDDAIFIKAIVDLTGL
notes: also called 内源TRAF2
B2: B3ICDhFc (LILRB3胞内结构域, C末端与hFc融合) (Fc fusion, human, UniProt O75022 465-631, looked up)
chain: RRQRHSKHRTSDQRKTDFQRPAGAAETEPKDRGLLRRSSPAADVQEENLYAAVKDTQSEDRVELDSQSPHDEDPQAVTYAPVKHSSPRREMASPPSSLSGEFLDTKDRQVEEDRQMDTEAAASEASQDVTYAQLHSLTLRRKATEPPPSQEGEPPAEPSIYATLAIH
notes: domain: 胞内结构域; Purified for the in vitro pull-down with GST-TRAF2; not shown: human Fc (hFc) fused at the C-terminus
B3: HA-TRAF2 (other, human, UniProt Q12933 1-501, looked up)
chain: MAAASVTPPGSLELLQPGFSKTLLGTKLEAKYLCSACRNVLRRPFQAQCGHRYCSFCLASILSSGPQNCAACVHEGIYEEGISILESSSAFPDNAARREVESLPAVCPSDGCTWKGTLKEYESCHEGRCPLMLTECPACKGLVRLGEKERHLEHECPERSLSCRHCRAPCCGADVKAHHEVCPKFPLTCDGCGKKKIPREKFQDHVKTCGKCRVPCRFHAIGCLETVEGEKQQEHEVQWLREHLAMLLSSVLEAKPLLGDQSHAGSELLQRCESLEKKTATFENIVCVLNREVERVAMTAEACSRQHRLDQDKIEALSSKVQQLERSIGLKDLAMADLEQKVLEMEASTYDGVFIWKISDFARKRQEAVAGRIPAIFSPAFYTSRYGYKMCLRIYLNGDGTGRGTHLSLFFVVMKGPNDALLRWPFNQKVTLMLLDQNNREHVIDAFRPDVTSSSFQRPVNDMNIASGCPLFCPVSKMEAKNSYVRDDAIFIKAIVDLTGL
notes: also called 外源HA-TRAF2; not shown: HA tag
B4: SHP-1 (enzyme)
chain: not shown
notes: also called 内源性SHP-1; 外源SHP-1

Columns and labels:
[1] = target: T1, LILRB3 (白细胞免疫球蛋白样受体亚家族B成员3), full length (human, UniProt O75022 24-631); experiment: co-IP from primary M5 AML cells with human anti-LILRB3 antibody
T1 construct: whole, on cells; also called B3-FL; 全长LILRB3

[2] = target: T2, LILRB3-hFc (全长LILRB3, C末端hFc标签) (human, UniProt O75022 24-631); experiment: co-IP of endogenous TRAF2 with LILRB3-hFc in THP-1 cells, with LPS or PBS
T2 construct: whole, on cells; also called hFc加标签的B3-FL; not shown: human Fc (hFc) fused at the C-terminus in the pFLAG-CMV5.1 vector

HA-TRAF2 = target: B3; experiment: co-IP in 293T cells with or without FLAG-A20N (Fig 6j)
FLAG-cFLIP = FLAG-cFLIP (human, UniProt O15519 1-480); experiment: co-IP in 293T cells
[3] = target: T2, LILRB3-hFc (全长LILRB3, C末端hFc标签); experiment: co-IP of HA-TRAF2 with hFc-fused LILRBs in 293T cells
LILRB3 QEE509-511AAA突变体 = target: T3, LILRB3 QEE509-511AAA突变体 (human, UniProt O75022 24-631); experiment: co-IP in 293T cells
T3 construct: It is probably hFc-fused like the other LILRB3 constructs; also called B3AAA

氨基酸505-515缺失的LILRB3 = 氨基酸505-515缺失的LILRB3 (human, UniProt O75022 24-631); experiment: co-IP in 293T cells
[4] = target: T2, LILRB3-hFc (全长LILRB3, C末端hFc标签); experiment: co-IP in THP-1 cells stably expressing LILRB3-hFc

Chain of FLAG-cFLIP (O15519 whole entry, the tested form may be a part): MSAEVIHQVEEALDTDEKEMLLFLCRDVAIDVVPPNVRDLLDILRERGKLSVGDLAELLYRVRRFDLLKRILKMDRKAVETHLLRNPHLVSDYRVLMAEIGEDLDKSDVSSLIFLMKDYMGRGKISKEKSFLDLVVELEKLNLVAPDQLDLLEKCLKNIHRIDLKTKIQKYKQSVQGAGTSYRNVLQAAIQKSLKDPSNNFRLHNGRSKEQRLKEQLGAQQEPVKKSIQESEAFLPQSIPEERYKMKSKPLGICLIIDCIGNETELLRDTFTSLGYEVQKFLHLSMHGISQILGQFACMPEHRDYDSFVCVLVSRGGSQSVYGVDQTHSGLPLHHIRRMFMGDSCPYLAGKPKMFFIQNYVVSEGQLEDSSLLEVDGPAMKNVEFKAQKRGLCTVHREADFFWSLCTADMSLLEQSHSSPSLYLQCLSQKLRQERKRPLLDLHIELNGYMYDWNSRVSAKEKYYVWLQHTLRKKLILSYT

Binder: B1
binding result [1]: binds | binding result [2]: binds

Binder: B2
binding result (HA-TRAF2): binds | binding result (FLAG-cFLIP): no binding

Binder: B3
binding result [3]: binds | binding result (LILRB3 QEE509-511AAA突变体): no binding | binding result (氨基酸505-515缺失的LILRB3): no binding

Binder: B4
binding result [4]: binds
